# Test results taken from patent US20100260765A1 (AstraZeneca / MedImmune, published 2010).
# Numbering of substitutions follows the chain as printed.
# B1: 1G6 (antibody, V domains shown)
# VH: EVQLLESGGGLVQPGGSLRLSCAASGFTFSSYAMSWVRQAPGKGLEWVSAISGGGGNTYYADSVKGRFTISRDNSKNTLYLQMNSLRAEDTAVYYCSKVATDYWGQGTLVTVSS
# VL: QPVLTQSSSASASLGSSVKLTCTLSSGHSSYIIAWHQQQPGKAPRYLMKLEGSGSYNKGSGVPDRFSGSSSGADRYLTISNLQFEDEADYYCETWDSYTVVFGGGTKLTVL
# B2: 29A11 (antibody, V domains shown)
# VH: B1 VH with S31N, S35N, S85R, S97A, V99A, A100S, T101G, Y103D
# VL: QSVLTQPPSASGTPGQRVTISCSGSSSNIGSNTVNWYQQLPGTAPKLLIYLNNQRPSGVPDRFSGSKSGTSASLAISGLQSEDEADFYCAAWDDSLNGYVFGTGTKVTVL
# B3: 32G7 (antibody, V domains shown)
# VH: EVQLVESGGGLVKPGGSLRLSCAASGFTISSYSMNWVRQAPGKGLEWVSFISSRSNYIYYADSVKGRFTISRDNAKNSLYLQMNSLRAEDTAVYYCSKDDWFEELWGQGTLVTVSS
# VL: DIQMTQSPSSLSASVGDRVTITCRASQDIRNDLGWYQQKPGKAPKRLIYAASSLQSGVPSRFSGSGSGTEFTLTISSLQPEDFATYYCLQHNSFPWTFGQGTKVEIK
# B4: 29D4 (antibody, V domains shown)
# VH: QLQLQESGPGLVKPSETLSLTCTVSGGSISSRSNYWGWIRQPPGKGLEWIGTIYYSGHTYYNPSLKSRVSISVDTSKNQFSLKLSSVTATDTALYYCARQQLVLYYFEYWGQGTLVTVSS
# VL: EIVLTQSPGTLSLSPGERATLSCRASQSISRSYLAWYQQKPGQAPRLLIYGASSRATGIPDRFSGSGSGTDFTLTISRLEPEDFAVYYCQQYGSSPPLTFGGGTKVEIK
# B5: 32F4 (antibody, V domains shown)
# VH: B4 VH with E16G, T21S, N34D, H58N, Y60F, S70T, N78K, T90A, L94V, E108D
# VL: EIVLTQSPGTLSLSPGERATLSCRTSQSVSSSYLAWYQQKPGQAPRLLIYGASSRATGVPDRFSGSGSGTDFSLTISRLEPEDFAVYYCQQYGSSPPLTFGGGTKVEIK
# B6: 33D5 (antibody, V domains shown)
# VH: QVQLVQSGAEVKKPGASVKVSCKASGYTFGSYDINWVRQATGQGLEWMGWMNPNSGNTGYAQKFQGRVTLTRNTSIRTVYMELSSLRSEDTAVYYCARGGYSNLGWFDPWGQGSLVTVSS
# VL: DIQMTQSPSSVSVSVGDRVTITCRASQGISSWLAWYQQKPGKAPKLLIYAASSLQSGVPSRFSGSGSGTDFTLTISSLQPEDFATYYCQQANSFPFTFGPGTKVDIK
# Molecular target: T1, KDR (human, UniProt P35968 20-1356)
# T1 sequence (P35968 20-1356): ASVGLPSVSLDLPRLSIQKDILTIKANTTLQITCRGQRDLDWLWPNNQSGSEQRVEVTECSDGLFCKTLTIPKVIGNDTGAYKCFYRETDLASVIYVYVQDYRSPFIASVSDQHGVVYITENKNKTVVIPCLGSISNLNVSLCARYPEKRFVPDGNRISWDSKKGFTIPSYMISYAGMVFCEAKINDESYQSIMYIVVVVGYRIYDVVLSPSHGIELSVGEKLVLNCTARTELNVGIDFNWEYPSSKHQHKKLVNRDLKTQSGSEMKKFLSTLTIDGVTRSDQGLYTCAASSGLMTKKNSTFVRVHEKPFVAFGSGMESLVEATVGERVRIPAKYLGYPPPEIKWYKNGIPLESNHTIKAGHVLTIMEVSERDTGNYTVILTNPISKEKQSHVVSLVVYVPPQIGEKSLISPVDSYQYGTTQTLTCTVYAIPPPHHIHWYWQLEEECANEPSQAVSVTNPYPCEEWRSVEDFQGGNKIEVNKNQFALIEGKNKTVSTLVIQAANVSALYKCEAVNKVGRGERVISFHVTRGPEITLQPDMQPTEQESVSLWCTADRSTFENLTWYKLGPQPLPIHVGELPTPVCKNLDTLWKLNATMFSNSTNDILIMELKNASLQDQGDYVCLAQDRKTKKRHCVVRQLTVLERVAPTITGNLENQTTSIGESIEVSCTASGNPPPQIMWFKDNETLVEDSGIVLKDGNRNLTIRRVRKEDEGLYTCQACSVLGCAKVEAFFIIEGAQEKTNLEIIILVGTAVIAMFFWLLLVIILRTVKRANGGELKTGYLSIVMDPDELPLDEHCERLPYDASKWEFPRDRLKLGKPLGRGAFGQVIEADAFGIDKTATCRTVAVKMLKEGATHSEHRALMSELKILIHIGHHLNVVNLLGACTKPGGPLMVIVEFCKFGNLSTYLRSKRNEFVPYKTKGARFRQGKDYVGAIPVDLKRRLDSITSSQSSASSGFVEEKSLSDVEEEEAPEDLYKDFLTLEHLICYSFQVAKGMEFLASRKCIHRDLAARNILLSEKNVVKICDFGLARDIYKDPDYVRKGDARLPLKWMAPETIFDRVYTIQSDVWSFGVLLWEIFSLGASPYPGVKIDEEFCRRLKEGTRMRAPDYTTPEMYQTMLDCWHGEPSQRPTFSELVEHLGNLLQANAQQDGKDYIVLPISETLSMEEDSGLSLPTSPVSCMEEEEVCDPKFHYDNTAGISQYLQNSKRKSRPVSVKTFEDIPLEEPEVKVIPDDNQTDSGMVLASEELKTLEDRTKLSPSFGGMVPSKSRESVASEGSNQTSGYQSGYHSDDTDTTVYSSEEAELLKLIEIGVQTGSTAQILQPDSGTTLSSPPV
# Test: cell-based or functional assay
Binder,"% Inhibition of VEGF165-mediated 6-keto Prostaglandin F1α release at 133 nM Antibody Concentration, Average [%]","% Inhibition of VEGF165-mediated 6-keto Prostaglandin F1α release at 133 nM Antibody Concentration, N = 1 [%]","% Inhibition of VEGF165-mediated 6-keto Prostaglandin F1α release at 133 nM Antibody Concentration, N = 2 [%]"
B1,49,12,86
B2,25,8,41
B3,76,37,115
B4,95,72,119
B5,73,69,76
B6,36,15,57

# Molecular target: T1, KDR
# Test: cell-based or functional assay
# Remark: another data set of the same source
Binder,"Activity at 133 nM Antibody Concentration (% Survival Inhibition), Average [%]","Activity at 133 nM Antibody Concentration (% Survival Inhibition), N = 1 [%]","Activity at 133 nM Antibody Concentration (% Survival Inhibition), N = 2 [%]"
B1,0,9,-10
B2,-2,6,-10
B3,69,70,67
B4,85,85,85
B5,73,88,58
B6,5,13,-2

# Molecular target: T1, KDR
# Test: cell-based or functional assay
# Remark: another data set of the same source
Binder,"Activity at 133 nM (% Inhibition), 1-hour Pre-incubation at 4° C., Average [%]","Activity at 133 nM (% Inhibition), 1-hour Pre-incubation at 4° C., N = 1 [%]","Activity at 133 nM (% Inhibition), 1-hour Pre-incubation at 4° C., N = 2 [%]"
B1,43,35,50
B2,32,30,33
B3,79,79,79
B4,68,64,73
B5,64,60,68
B6,49,39,60

# Molecular target: T1, KDR
# Test: cell-based or functional assay
# Remark: another data set of the same source
Binder,"Activity at 133 nM (% Inhibition), 24-hour Pre-incubation at 37° C., Average [%]","Activity at 133 nM (% Inhibition), 24-hour Pre-incubation at 37° C., N = 1 [%]","Activity at 133 nM (% Inhibition), 24-hour Pre-incubation at 37° C., N = 2 [%]"
B1,36,25,47
B2,23,19,27
B3,57,36,77
B4,80,75,85
B5,22,25,18
B6,-15,8,-38

# Molecular target: T1, KDR
# Test: cell-based or functional assay
# Remark: another data set of the same source
Binder,"% of Max VEGF KDR pTyr Activity (at 133 nM antibody concentration), Average [%]","% of Max VEGF KDR pTyr Activity (at 133 nM antibody concentration), N = 1 [%]","% of Max VEGF KDR pTyr Activity (at 133 nM antibody concentration), N = 2 [%]"
B1,13,17,10
B2,12,15,10
B3,9,11,6
B4,13,15,12
B6,17,20,15
